# Experimental data from patent publication US20260242478A1 (published 2026).
# Assays:
# PSMA Fab (006 PSMA Fab) [1] = biological target: T1, PSMA Fab (006 PSMA Fab) (Fab biotinylated for capture on neutravidin plates (site not stated)); assay: phage ELISA: clonal phage supernatant on biotinylated PSMA Fab captured on neutravidin plate, blocking buffer alone, anti-M13-HRP detection
# T1 construct: also called Anti-PSMA Fab; anti-PSMA Fab
# PSMA Fab (006 PSMA Fab) [2] = biological target: T1, PSMA Fab (006 PSMA Fab); assay: phage ELISA: clonal phage supernatant on biotinylated PSMA Fab captured on neutravidin plate, wells pre-incubated with PSMA antigen as competitor, anti-M13-HRP detection
# Method: (§1) Clonal phage were harvested as crude supernatants and screened via standard ELISAs. […] Prior to the addition of clonal phage. wells were incubated with blocking buffer and PSMA antigen or blocking buffer alone. Without washing or aspirating, clonal phage supernatants were then added to the wells and incubated for a short time. Wells were then washed followed by detection of bound phage using a horse radish conjugated anti-M13 antibody.
# 006 PSMA Fab [3] = biological target: T2, 006 PSMA Fab; assay: clonal phage ELISA on biotinylated PSMA Fab captured on neutravidin plates, anti-M13 HRP detection;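 note: crude clonal phage supernatants tested, before phage were added, wells were pretreated with PSMA antigen in blocking buffer or with blocking buffer only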
# T2 construct: In the panning ELISA the PSMA Fab was biotinylated and captured on neutravidin coated plates; also called Anti-PSMA Fab; anti-PSMA Fab
# Method: as §1
# 006 PSMA Fab [4] = biological target: T2, 006 PSMA Fab; assay: clonal phage ELISA on captured PSMA Fab pre-incubated with PSMA antigen as competitor, anti-M13 HRP detection;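 note: crude clonal phage supernatants tested by ELISA, wells first treated with blocking buffer plus PSMA antigen, bound phage read out via HRP-linked anti-M13 antibody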
# Method: as §1
# PSMA Fab (006 PSMA Fab) [5] = biological target: T3, PSMA Fab (006 PSMA Fab); assay: phage ELISA; biotinylated PSMA Fab on neutravidin plate, clonal phage supernatant, anti-M13 HRP detection; blocking buffer alone
# T3 construct: also called Anti-PSMA Fab; anti-PSMA Fab
# Method: as §1
# PSMA Fab (006 PSMA Fab) [6] = biological target: T3, PSMA Fab (006 PSMA Fab); assay: phage ELISA; biotinylated PSMA Fab on neutravidin plate pre-incubated with PSMA antigen as competitor, clonal phage supernatant, anti-M13 HRP detection
# Method: as §1
# 006 PSMA Fab [7] = biological target: T4, 006 PSMA Fab; assay: clonal phage ELISA on biotinylated PSMA Fab captured on neutravidin, anti-M13 HRP detection, no competitor
# T4 construct: In the phage ELISA the Fab was biotinylated and captured on neutravidin coated plates; also called Anti-PSMA Fab
# Method: as §1
# 006 PSMA Fab [8] = biological target: T4, 006 PSMA Fab; assay: clonal phage ELISA on biotinylated PSMA Fab captured on neutravidin, wells pre-incubated with PSMA antigen as competitor, anti-M13 HRP detection
# Method: as §1
Binder,"Phage binding ELISA signal, Anti-PSMA Fab (PSMA Fab (006 PSMA Fab) [1])","Phage binding ELISA signal, Anti-PSMA Fab in presence of PSMA (PSMA Fab (006 PSMA Fab) [2])","Phage binding ELISA signal, Anti-PSMA Fab (006 PSMA Fab [7])","Phage binding ELISA signal, Anti-PSMA Fab with PSMA antigen (006 PSMA Fab [8])",also measured
LEHMCRPSWMCTGF [Phage-3085 (peptide-180 library clone)],2.1,0.0798,–,–,–
LDAMCRPLWMCSGF [Phage-3084 (peptide-180 library clone)],2.11,0.0799,–,–,–
FWAQCVPPWMCSGF [Phage-3086 (peptide-180 library clone)],2.1,0.199,–,–,–
TELACKPLWMCNGF [Phage-3091],–,–,–,–,"Phage binding ELISA signal, Anti-PSMA Fab (006 PSMA Fab [3]): 2.1; Phage binding ELISA signal, Anti-PSMA Fab in the presence of PSMA antigen (006 PSMA Fab [4]): 0.0691"
HLMACKPAWMCLGL [Phage-3079 (peptide-180 library clone)],2.11,0.135,–,–,–
"EFAMCRPVWMCWGF (Peptide-180 library clone, tested as clonal phage supernatant (peptide fused to pIII of the bacteriophage)) [Phage-3059]",–,–,–,–,"Phage binding ELISA signal, Anti-PSMA Fab (PSMA Fab (006 PSMA Fab) [5]): 2.15; Phage binding ELISA signal, Anti-PSMA Fab in the presence of PSMA antigen (PSMA Fab (006 PSMA Fab) [6]): 0.142"
TDQLCKPLWMCTGF [Phage-3089],–,–,–,–,"Phage binding ELISA signal, Anti-PSMA Fab (006 PSMA Fab [3]): 2.1; Phage binding ELISA signal, Anti-PSMA Fab in the presence of PSMA antigen (006 PSMA Fab [4]): 0.0815"
EEKMCVPLWMCSGF [Phage-3060],–,–,2.15,0.0787,–
SPYFCIPAWMCHGF [Phage-3071],–,–,2.13,0.121,–
VVPRCEPMWMCQGF [Phage-3088],–,–,–,–,"Phage binding ELISA signal, Anti-PSMA Fab (006 PSMA Fab [3]): 2.1; Phage binding ELISA signal, Anti-PSMA Fab in the presence of PSMA antigen (006 PSMA Fab [4]): 0.0982"
VERSCVPSWMCYGF [Phage-3066],–,–,2.14,0.0806,–
IMMRCEPVWMCEGF [Phage-3072],–,–,2.13,0.118,–
"TGPVCIPKWMCFGF (Peptide-180 library clone, tested as clonal phage supernatant (peptide fused to pIII of the bacteriophage)) [Phage-3057]",–,–,–,–,"Phage binding ELISA signal, Anti-PSMA Fab (PSMA Fab (006 PSMA Fab) [5]): 2.15; Phage binding ELISA signal, Anti-PSMA Fab in the presence of PSMA antigen (PSMA Fab (006 PSMA Fab) [6]): 0.075"
"IEMMCRPSWMCDWL (Peptide-180 library clone, tested as clonal phage supernatant (peptide fused to pIII of the bacteriophage)) [Phage-3056]",–,–,–,–,"Phage binding ELISA signal, Anti-PSMA Fab (PSMA Fab (006 PSMA Fab) [5]): 2.16; Phage binding ELISA signal, Anti-PSMA Fab in the presence of PSMA antigen (PSMA Fab (006 PSMA Fab) [6]): 0.0844"
ISPVCIPSWMCLGL [Phage-3069],–,–,2.13,0.174,–
LEKACVPQWMCYGL [Phage-3070],–,–,2.13,0.0938,–
GAMVCKPAWMCQGF [Phage-3094],–,–,–,–,"Phage binding ELISA signal, Anti-PSMA Fab (006 PSMA Fab [3]): 2.1; Phage binding ELISA signal, Anti-PSMA Fab in the presence of PSMA antigen (006 PSMA Fab [4]): 0.0731"
VDLICRPAWMCSGF [Phage-3087 (peptide-180 library clone)],2.1,0.0726,–,–,–
WLMRCEPQWMCAGF [Phage-3073],–,–,2.12,0.131,–
YEQLCKPLWMCQGF [Phage-3075 (peptide-180 library clone)],2.12,0.0628,–,–,–

Binder,"Phage binding ELISA signal, Anti-PSMA Fab (PSMA Fab (006 PSMA Fab) [1])","Phage binding ELISA signal, Anti-PSMA Fab in presence of PSMA (PSMA Fab (006 PSMA Fab) [2])","Phage binding ELISA signal, Anti-PSMA Fab (006 PSMA Fab [7])","Phage binding ELISA signal, Anti-PSMA Fab with PSMA antigen (006 PSMA Fab [8])",also measured
GQNLCIPSWMCEGF [Phage-3083 (peptide-180 library clone)],2.11,0.08,–,–,–
DEWICRPAWMCQGF [Phage-3076 (peptide-180 library clone)],2.12,0.0632,–,–,–
VEPYCKPAWMCTGF [Phage-3093],–,–,–,–,"Phage binding ELISA signal, Anti-PSMA Fab (006 PSMA Fab [3]): 2.1; Phage binding ELISA signal, Anti-PSMA Fab in the presence of PSMA antigen (006 PSMA Fab [4]): 0.11"
EWMKCVPLWMCEGI [Phage-3080 (peptide-180 library clone)],2.11,0.0802,–,–,–
VEIQCRPSWMCMGF [Phage-3063],–,–,2.14,0.0951,–
VQVLCVPSWMCHGF [Phage-3062],–,–,2.15,0.0688,–
TDHLCVPSWMCLGF [Phage-3081 (peptide-180 library clone)],2.11,0.0801,–,–,–
LLAECVAAWMCSGF [Phage-3067],–,–,2.13,0.0712,–
ITKACIPEWMCHAF [Phage-3061],–,–,2.15,0.0651,–
VNHLCKPTWMCAGF [Phage-3077 (peptide-180 library clone)],2.12,0.0765,–,–,–
LSHMCRPAWMCEGF [Phage-3068],–,–,2.13,0.0938,–
DGPLCVPQWMCLWL [Phage-3082 (peptide-180 library clone)],2.11,0.0699,–,–,–
TYMMCVPEWMCQGF [Phage-3078 (peptide-180 library clone)],2.11,0.101,–,–,–
TGAICVPEWMCMGF [Phage-3092],–,–,–,–,"Phage binding ELISA signal, Anti-PSMA Fab (006 PSMA Fab [3]): 2.1; Phage binding ELISA signal, Anti-PSMA Fab in the presence of PSMA antigen (006 PSMA Fab [4]): 0.0934"
TASWCKPGGACKGF [Phage-3074 (peptide-180 library clone)],2.12,0.0801,–,–,–
VVPMCSPSWMCQGF [Phage-3064],–,–,2.14,0.0725,–
GMVRCVPQWMCVGF [Phage-3065],–,–,2.14,0.111,–
"DWVRCVPEWMCLGF (Peptide-180 library clone, tested as clonal phage supernatant (peptide fused to pIII of the bacteriophage)) [Phage-3058]",–,–,–,–,"Phage binding ELISA signal, Anti-PSMA Fab (PSMA Fab (006 PSMA Fab) [5]): 2.15; Phage binding ELISA signal, Anti-PSMA Fab in the presence of PSMA antigen (PSMA Fab (006 PSMA Fab) [6]): 0.106"
VSIMCTPLWMCEGF [Phage-3090],–,–,–,–,"Phage binding ELISA signal, Anti-PSMA Fab (006 PSMA Fab [3]): 2.1; Phage binding ELISA signal, Anti-PSMA Fab in the presence of PSMA antigen (006 PSMA Fab [4]): 0.0782"
